± gives the uncertainty stated by the source.
Assay: amyloid nucleation score (Sup35N fusion, yeast selection) (log enrichment); library NNK2; higher = more nucleation; inactive = no reads after selection
Procedure, shortened: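 Output and input plasmid inserts were sequenced by Illumina after psi-negative yeast carrying Sup35N fused to peptides of 20 random codons had been induced 24 hours with 100 μM copper sulfate and grown 7 days at 30°C on medium lacking adenine and uracil. The nucleation score is the DiMSum log enrichment of output over input reads, centred on the mode score of non-aggregating sequences. Sequences with under 100 input reads were excluded.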

Substance	amyloid nucleation score
NGISYQRMTGNGFVESNGAS	4.683 ± 0.034
KYNLRDSNCSTCMFGSSRVS	4.251 ± 0.04
KLHQNSKGCPGVLPVDGLKM	0.82 ± 0.56
IYEGIIVIFSDTGTLWRYWI	-2.09 ± 0.54
CTWDFNDHFMLVQNNDEQLW	0.087 ± 0.79
MIFSEFGAEVIVGWFVVSVG	-0.9 ± 0.76
STCVGEYLHCSLSCAGMVLL	6.593 ± 0.049
VQFTRSVRFTLQFCARSDKT	6.91 ± 0.045
DSFASTQYCAVSSSVQLAWQ	1.45 ± 0.27
SIGPLLHMCSFVFLEVRIIF	1.83 ± 0.15
AYYFVLNVSTNLGNLGRTIL	4.35 ± 0.11
ILGVRYVSCSGSLGNWAQRG	4.87 ± 0.098
TEDVDL	1.5 ± 0.2
NHWWIHYDDLLLAHDFLHLW	0.055 ± 0.42
YGGKSHPLIWFACIWSYIVN	3.04 ± 0.07
SLTTLCNLTIWDH	0.756 ± 0.53
FTVGSMSGDFWLLCWYLR	3.09 ± 0.15
AVSYVDILAFGLMFQKSLGK	5.74 ± 0.063
DCCRWSVLVVIVLAARSSMS	3.17 ± 0.099
IIHTWLWTHRSIR	-0.406 ± 0.5
MLWWLYLTDYSISGYNVGKM	0.433 ± 0.74
WLCYRGEFRYFDPVGNDLRN	inactive
WLRLPICDLQLLNWADLRFV	0.236 ± 1.1
VMWDRRHFMAVSSDLEDKTR	0.438 ± 0.16
RSVVVGGHNLRISTQAILIP	0.34 ± 0.64

Substance	amyloid nucleation score
PLNCLPGNCSAQPRFGAASG	0.505 ± 0.39
RGERVSPNNGTS	0.87 ± 0.14
FCSVCDRL	0.168 ± 0.23
CLYCGDLLLRFEYKCRGVNQ	5.15 ± 0.092
TIVLGSPANHHTLKCKERGK	0.197 ± 0.56
SLFITASYYNFRG	3.62 ± 0.049
IVFSDLTITF	3.29 ± 0.11
AYWYSQRAMGFKHSLFLT	-0.921 ± 0.41
MLRGSRWPSSGTFSCDDSKR	-0.038 ± 0.45
KFKLLMTSRWDTFNVADTYD	5.04 ± 0.042
LDPSVLMLWLFYRVQSLHVS	0.008 ± 0.35
NSVDTTCAL	1.04 ± 0.41
HRTVRFP	inactive
YKLGTRMSECLRNNVLDSSS	inactive
FFMIEMPVKSTFVGWSRSEG	-0.074 ± 0.25
NILVTRNNKHTSFCYTSLLL	2.22 ± 0.084
IHRGFILADTLHHYCSGLLI	-0.199 ± 0.65
ESNKRTTCLFH	0.331 ± 0.32
LFAYCMDSHLHTTSKFILTL	0.047 ± 0.5
LASHVVWTDKN	6.635 ± 0.041
TGCTFCKSMCLYGETSRKDN	0.132 ± 0.36
MLSIVNCNGSRVGYWTDS	5.85 ± 0.08
MLYSWKFPEVASGNLKCRLE	-0.24 ± 0.32
RGVKDRKRQVQFEKSSRSMA	0.361 ± 0.21
SSEEFNVCYYGDPYKSVRTR	0.341 ± 0.47

Substance	amyloid nucleation score
SNPTSVQVRFLLHILLKSVL	0.629 ± 0.52
LLVSSVSMTWHGKLSHTYFK	4.62 ± 0.059
VFGSEVSNIRRESWRSLIGQ	0.756 ± 0.18
GSVTRGVRRAY	4.73 ± 0.06
CIYVYSLVWM	2.42 ± 0.2
WGAVMACE	0.756 ± 0.49
WSTFSTFTGYSA	-0.335 ± 0.5
HLTESHFGWFGSDVSSQTFL	3.42 ± 0.084
VTHNYKFIQLGSEK	4.12 ± 0.074
IGTNSGAINSVSHGLLAGYG	1.24 ± 0.47
LKRGYSFMRCLGVWRFQEPD	-0.158 ± 0.25
RLKLMQFLHLAPIVPAILCC	0.444 ± 0.35
FGKPGPRFLSSPGFSYP	0.382 ± 0.51
GGLAGWSGWNTQDELGCGTT	0.775 ± 0.4
FATQGSHKAVLGRSVHHLCR	-0.447 ± 0.61
NVAGCSWSSQLPRPTP	1.46 ± 0.61
GGMGHVFITCWGYVYIDYLV	7.207 ± 0.025
IDLMKLCFLLYSIGFFLPTH	inactive
WCGARLKSDLCILK	-0.494 ± 0.31
VNLTSFYLITDCTLNGQQWR	8.654 ± 0.052
TLKYSVVNTLMTSMHDF	3.56 ± 0.082
SDGARLWR	0.097 ± 1.1
KNRRFT	-0.493 ± 1.1
TFGCEPVGPVA	0.409 ± 0.8
LRFKNVWWPYGDYECATIIT	-0.468 ± 0.41

Substance	amyloid nucleation score
SLIGTRLIGAAGISSVKRLY	0.208 ± 0.46
KKKDSAKLLVTE	-0.409 ± 0.76
LLGARDFGWGLHGLLGYRLG	0.123 ± 0.56
TFGTQELELTD	inactive
IKCKKKYRSYWNRG	-0.27 ± 0.46
LIIQRLEGAF	-0.245 ± 0.32
VMQVVLGNMLMRRSQVLYNW	-0.62 ± 0.41
GLSQILDDVGWICRVFELQR	0.299 ± 0.37
PFGHFQLLINSKTGMRSVMT	-0.463 ± 0.37
DKSNGVTMVESITSGG	-0.303 ± 0.56
LRFYPW	1.14 ± 0.36
VNMIRRTINSGVYRWSFQLQ	1.14 ± 0.54
MAACCHKLWLTCFDTVRMFN	-0.478 ± 0.41
MLFGFFGIPRGSRVLFSNV	inactive
IVIPSSK	inactive
DIWYLICLSQSSGLFLVGVM	-0.55 ± 0.79
MGFSRTLYIRKDIFLFVLHL	-0.759 ± 0.64
MWESQGHSLAV	inactive
MDIFRYVCNCYKSSNKKVFG	-1.25 ± 0.78
DGHVELCISAKDYD	-0.249 ± 0.53
RELKCQCLERVLLRVRQCAM	6.821 ± 0.056
AILLGLWCCTWFREALACLA	1.04 ± 0.29
FLVMGLRYS	5.407 ± 0.052
STSSKVGVEAYTRDDRHLLS	1.01 ± 0.19
VNSLYCM	-0.447 ± 1.1

Substance	amyloid nucleation score
VWVSSIDMGLFVANLCETAS	-0.074 ± 1.1
EHVGVTTVPIPLGMGLTWWC	0.309 ± 0.16
ISTYSMYACFKMSL	4.88 ± 0.1
VHNCCTVVSLRREDESVYTN	-0.146 ± 0.38
WHDNSSNGTGEGNFVRPVPV	1.13 ± 0.11
LYYTCDIHTGRWWVLLVHGV	4.28 ± 0.11
WWLYAL	3.74 ± 0.11
VQATGADVFWDW	-0.199 ± 0.76
HTSFIMYMYHSRIWHGMYQT	inactive
VVVLFIEVLNCYLRGKVKCM	-0.802 ± 0.39
LSINSFTKHQ	0.148 ± 1
MMLSYILR	0.223 ± 0.77
RWMVHAA	-0.251 ± 0.76
MDVGYCRNAVHRMLGMNCMM	4.95 ± 0.062
MEWKSGL	0.534 ± 0.64
CSCGYMKANR	-0.721 ± 1
VLYRLKVKAQWSLS	0.878 ± 0.28
RTYEMKAMRVASWQSS	1.9 ± 0.098
QWRINSRLFG	-0.266 ± 0.22
SRLYGLDCRILFVNFYTKLP	inactive
RLGIVSSVLVYWLYNYYSVL	inactive
VMLRYNSYGNYLLRWHTDDA	-0.843 ± 0.44
KRKISDSSPRDRWVALLKKL	2.15 ± 0.15
HGTATCVAILMNRL	6.35 ± 0.077
GNLLLSVITDQL	4.69 ± 0.072

Substance	amyloid nucleation score
EWILTELYHWFNFFYCRDGV	-1.2 ± 1.1
TTRIS	inactive
STQLDSKILINLRFFRMSIV	-0.081 ± 1.1
VYRNVLSRMQSLCVF	inactive
YRLMLMS	0.43 ± 0.42
RTGRDFLSSIFFTSK	-1.8 ± 0.41
GYYCDYSNTSRATRNMASKR	-0.719 ± 0.32
DFSMIGSEKVAPGKNPDASL	0.22 ± 0.57
SGLVWVTN	-0.018 ± 1.1
RNSLKARYWWGLSGLLKVW	-1.01 ± 0.55
CDQYHSQPWMLKTQIRLMTA	1.27 ± 0.3
LNGSADTLD	-0.755 ± 0.41
RLVRVGYLGRKTQRRSCQKL	0.686 ± 0.2
SVTRRVSYRSYLVLVGEWKQ	0.901 ± 0.32
WFWNGLFNIRTVLDMHALCT	4.11 ± 0.088
WYGFNNDTEWKNTKAFW	1.83 ± 0.084
PREKLYITMNMADIGSSRHP	4.86 ± 0.051
MYRYSWHDVFCVSKCSEVS	inactive
DRSFVETREVACVVMYTSVF	-0.395 ± 0.61
QVVFQGLFFYVGCSGHICRY	7.67 ± 0.062
VRFVINSWLTCVYERNIKLL	-0.058 ± 0.22
VLSPQVKRSHTFLGNDLRTD	4.64 ± 0.072
AGFMHVCYGSGQHRSKVDGC	2.93 ± 0.082
LAHETLCLDTYRDPW	-1.54 ± 1
SVYLNPHPTLMGNQSVLKLI	1.29 ± 0.66

Substance	amyloid nucleation score
PYIWYPISECRGSSSFETYA	0.29 ± 0.74
IIYYWAPLVITMEFQERRVR	6.395 ± 0.038
AVNGQGDS	-0.231 ± 0.43
NSVCSTLKHLSNLGSIDIQH	-0.363 ± 1.1
LVNSGKLVIPPAVSWWYNWF	-0.763 ± 0.37
AIVGEMMALFYDNLSRGGVH	-0.505 ± 0.47
DQSTSFFIFYNQTNWSMLFP	6.12 ± 0.056
NWNLRHRCAGWYCDRRKVLR	4.28 ± 0.085
TINMNIYFIVRVDPSFDNVV	6.88 ± 0.064
CVYEIPKM	3.09 ± 0.048
LSFGIVKLVMRAFTKKVTKG	0.388 ± 0.47
IRNQWMQVSQVFSVSRAVET	0.369 ± 0.3
DSGLSHSNQWVDFSEYPTRL	inactive
IKVNCIEYYHSLRSRFDTSA	0.065 ± 1.1
RRRIRVCGSWFSGYN	-0.527 ± 0.5
CCGFGDEKDN	-0.206 ± 1.1
FIADYYGGKTHGNLMSALTC	1.06 ± 0.53
CRWISTTLIFARCELFRLAV	0.567 ± 0.38
DRVNGYIIGRLTAYTSVSKD	-0.317 ± 1.1
IFNWECMDAFFSLK	inactive
